Columns and labels:
[1] = tested on: phospho-Sic1; assay: P-Sic1 pull down: in vitro capture of phospho-Sic1 on immobilized wild type or mutant Cdc4-GST-Skp1, anti-Sic1 immunoblot; type: binding, yeast; details: Sic1 phosphorylated with Cln2-Cdc28, captured onto GST-Skp1/Cdc4 resin, anti-Sic1 detection
Protocol: (§1) Mutational analysis of the CPD binding surface. Mutants were tested in vitro by ability to bind phosphorylated Sic1 and then captured onto GST-Skp1/Cdc4 resin and detected with anti-sic1 antibody. Mutants were tested in vivo by ability to degrade GAL1-SIC1 or various phosphorylation mutants. Sites are as follows: 3=Thr 33, Thr 45, Ser 76; 4=Thr 5, Thr 33, Thr 45, Ser 76; 5=Thr 2, Thr 5, Thr 33, Thr 45, Ser 76; 6=Thr 2, Thr 5, Thr 33, Thr 45, Ser 69, Ser 76; 7=Thr 2, Thr 5, Thr 33, Thr 45, Ser 69, Ser 76, Ser 80. GAL1-SIC1 plasmids were transformed into a cdc4Δ strain containing a copy of CDC4 on a TRP1 ARS CEN plasmid. Strains were incubated for 2 days at 30° C.
Bacterially expressed His6-Sic1 was phosphorylated with Cln2-Cdc28 kinase purified from baculovirus infected Sf9 cells as described before (Nature paper). 1 ug of WT or mutant Cdc4-GST-Skp1, immoblized on GSH-Sepharose resin, was incubated with 0.5 ug phospho-Sic1 at 4 C for 1 h and washed 4 times. Captured complexes were resolved on SDS-PAGE and Sic1 visualized by anti-Sic1 Western blotting and ECL. For IEF-2D analysis, several Sic1 phosphorylation reactions were carried out for different time periods to obtain a spectrum of Sic1 that were phosphorylated at different numbers of its nine CDK sites. This pool of phospho-Sic1 (2.5 ug) was incubated with 5 μg of WT or mutant Cdc4-GST-Skp1 as described above. Different phosphorylation states of Sic1 were separated by denaturing isoelectric focusing (IEF)-2D gel electrophoresis and visualized by anti-Sic1 Western blotting and ECL. IEF was performed using pH 3-10NL Immobiline gel strips and IPGphore IEF system (Amersham pharmacia).
(§2) Cdc4 functional assays. CDC4 mutant alleles were assessed for complementation of a cdc4A strain in a plasmid shuffle assay (Nash et al., 2001). Sensitivity to SIC1 dosage was determined by transformation with pMT837 (GAL1-SIC1) or pMT767 (GAL1-SIC1^T33V) and plating on glucose medium or galactose medium. For in vitro capture of phospho-Sic1 by Cdc4, 0.5 μg of bacterially-expressed ^HIS6Sic1 was phosphorylated with immobilized Cln2-Cdc28 kinase from baculovirus-infected Sf9 cells and then incubated with 1 μg of immobilized wild type or mutant Cdc4^263-744-GST-Skp1, at 4° C. for 1 hr, washed 4 times and visualized by anti-Sic1 immunoblot. For isoelectric focusing (IEF)-2D gel analyses, an evenly distributed pool of phospho-Sic1 isoforms was generated by combining different time points in a Sic1 phosphorylation reaction. 2.5 μg of the phospho-Sic1 pool was bound to 5 μg of immobilized wild type or mutant Cdc4^1-744-GST-Skp1. Captured isoforms were separated by denaturing IEF-2D gel electrophoresis using pH3-10NL Immobiline gel strips (Amersham) and visualized by anti-Sic1 immunoblot. Alternatively, the pool of phospho-Sic1 isoforms was incubated in solution with a ubiquitination reaction mix containing ATP, ubiquitin, yeast E1, Cdc34 and either wild type or mutant SCF^Cdc4 complex, composed of a 1:1 ratio of bacterial Cdc4-GST-Skp1 and insect cell-produced Cdc53-Rbx1, at 30° C. for 1 h as previously described (Nash et al., 2001).

[2] = tested on: cdc4Δ strain overexpressing SIC1; assay: sensitivity to SIC1 dosage: GAL1-SIC1 overexpression in strains bearing CDC4 alleles; type: cell-based, yeast; details: for gal Sic1T33V: GAL1-SIC1 T33V (partially stabilized Sic1); for gal Sic1T33V / gal Sic1T45A / gal Sic1 wt: galactose, 2 days at 30° C.; for gal Sic1T45A: GAL1-SIC1 T45A; for gal Sic1 wt: GAL1-SIC1 wild type; for viability / sensitivity to increased SIC1 dosage: Sic1 wt or stabilized Sic1(T33V) or Sic1(T45A) over-expressed under a galactose promoter
Protocol: as §1
(§3) All mutants on a TRP1 ARS CEN plasmid were transformed into a cdc4Δ strain (MT 1259) containing a wildtype copy of CDC4 on a URA3 ARS CEN plasmid. Cells were plated on either Trp^−Ura^− or 5-FOA medium for 2 days at 30° C. Viable cells on 5-FOA were grown in Trp medium and transformed with either wild type GAL1-SIC1, GAL1-SIC T45A, or GAL1-SIC T33V on a LEU2 ARS CEN pasmid. Cells were then plated on Leu- Trp-plates containing either glucose or galactose and incubated for 2 days at 30° C.
Since the cell viability assay nay be masking subtle functional roles for the conserved Cdc4 residues, function was assayed in vivo under more stringent conditions in which Sic1 wt or the stabilized mutants, Sic1 (T33V) or Sic1(T45A) are over-expressed under a galactose promoter. This should amplify defects in cdc4 function. Under these conditions, Trp 717, Tyr 548 and the double mutant K404D/R443D are lethal showing that these residues are in fact important for functions
as §2

[3] = tested on: cdc4Δ strain; assay: plasmid shuffle assay: complementation of a cdc4Δ strain by CDC4 alleles; type: cell-based, yeast; details: viability of cdc4Δ strain on 5-FOA, 2 days at 30° C.
Protocol: as §3, §2

| Molecule | P-Sic1 pull down [1] | P-Sic1 pull down ([1]; listed as Tyr574Ala) | P-Sic1 pull down ([1]; listed as Tyr574Phe) | gal Sic1T33V [2] | gal Sic1T45A [2] | gal Sic1 wt [2] | viability / sensitivity to increased SIC1 dosage [2] | shuffle [3] | shuffle ([3]; listed as Tyr574Ala) | shuffle ([3]; listed as Tyr574Phe) | P-Sic1 pull down ([1]; listed as Trp717) | P-Sic1 pull down ([1]; listed as Trp717Asn) | gal Sic1T33V ([2]; listed as Trp717Asn) | shuffle ([3]; listed as Trp717) | P-Sic1 pull down ([1]; listed as Val384) | P-Sic1 pull down ([1]; listed as Val384Asn) | shuffle ([3]; listed as Val384) | shuffle ([3]; listed as Val384Asn) |
| --- | --- | --- | --- | --- | --- | --- | --- | --- | --- | --- | --- | --- | --- | --- | --- | --- | --- | --- |
| Y574F: mutant cdc4 polypeptide (protein) MGSFPLAEFPLRDIPVPYSYRVSGGIASSGSVTALVTAAGTHRNSSTAKTVETEDGEEDIDEYQRKRAAGSGESTPERSDFKRVKHDNHKTLHPVNLQNTGAASVDNDGLHNLTDISNDAEKLLMSVDDGSAAPSTLSVNMGVASHNVAAPTTVNAATITGSDVSNNVNSATINNPMEEGALPLSPTASSPGTTTPLAKTTKTINNNNNIADLIESKDSIISPEYLSDEIFSAINNNLPHAYFKNLLFRLVANMDRSELSDLGTLIKDNLKRDLITSLPFEISLKIFNYLQFEDIINSLGVSQNWNKIIRKSTSLWKKLLISENFVSPKGFNSLNLKLSQKYPKLSQQDRLRLSFLENIFILKNWYNPKFVPQRTTLRGHMTSVITCLQFEDNYVITGADDKMIRVYDSINKKFLLQLSGHDGGVWALKYAHGGILVSGSTDRTVRVWDIKKGCCTHVFKGHNSTVRCLDIVEYKNIKYIVTGSRDNTLHVWKLPKESSVPDHGEEHDYPLVFHTPEENPYFVGVLRGHMASVRTVSGHGNIVVSGSYDNTLIVWDVAQMKCLYILSGHTDRIFSTIYDHERKRCISASMDTTIRIWDLENIWNNGECSYATNSASPCAKILGAMYTLQGHTALVGLLRLSDKFLVSAAADGSIRGWDANDYSRKFSYHHTNLSAITTFYVSDNILVSGSENQFNIYNLRSGKLVHANILKDADQIWSVNFKGKTLVAAVEKDGQSFLEILDFSKASKINYVSNPVNSSSSSLESISTSLGLTRTTIIP | bind | fully competent | indistinguishable from wild type | alive | dead | alive | indistinguishable from wild type | alive | viable | indistinguishable from wild type | – | – | – | – | – | – | – | – |
| W717N: mutant cdc4 polypeptide (protein) MGSFPLAEFPLRDIPVPYSYRVSGGIASSGSVTALVTAAGTHRNSSTAKTVETEDGEEDIDEYQRKRAAGSGESTPERSDFKRVKHDNHKTLHPVNLQNTGAASVDNDGLHNLTDISNDAEKLLMSVDDGSAAPSTLSVNMGVASHNVAAPTTVNAATITGSDVSNNVNSATINNPMEEGALPLSPTASSPGTTTPLAKTTKTINNNNNIADLIESKDSIISPEYLSDEIFSAINNNLPHAYFKNLLFRLVANMDRSELSDLGTLIKDNLKRDLITSLPFEISLKIFNYLQFEDIINSLGVSQNWNKIIRKSTSLWKKLLISENFVSPKGFNSLNLKLSQKYPKLSQQDRLRLSFLENIFILKNWYNPKFVPQRTTLRGHMTSVITCLQFEDNYVITGADDKMIRVYDSINKKFLLQLSGHDGGVWALKYAHGGILVSGSTDRTVRVWDIKKGCCTHVFKGHNSTVRCLDIVEYKNIKYIVTGSRDNTLHVWKLPKESSVPDHGEEHDYPLVFHTPEENPYFVGVLRGHMASVRTVSGHGNIVVSGSYDNTLIVWDVAQMKCLYILSGHTDRIYSTIYDHERKRCISASMDTTIRIWDLENIWNNGECSYATNSASPCAKILGAMYTLQGHTALVGLLRLSDKFLVSAAADGSIRGWDANDYSRKFSYHHTNLSAITTFYVSDNILVSGSENQFNIYNLRSGKLVHANILKDADQINSVNFKGKTLVAAVEKDGQSFLEILDFSKASKINYVSNPVNSSSSSLESISTSLGLTRTTIIP | bind | – | – | dead | dead | alive | lethal | alive | – | – | fully competent | did not overtly affect | conferred sensitivity | viable | – | – | – | – |
| V384N: mutant cdc4 polypeptide (protein) MGSFPLAEFPLRDIPVPYSYRVSGGIASSGSVTALVTAAGTHRNSSTAKTVETEDGEEDIDEYQRKRAAGSGESTPERSDFKRVKHDNHKTLHPVNLQNTGAASVDNDGLHNLTDISNDAEKLLMSVDDGSAAPSTLSVNMGVASHNVAAPTTVNAATITGSDVSNNVNSATINNPMEEGALPLSPTASSPGTTTPLAKTTKTINNNNNIADLIESKDSIISPEYLSDEIFSAINNNLPHAYFKNLLFRLVANMDRSELSDLGTLIKDNLKRDLITSLPFEISLKIFNYLQFEDIINSLGVSQNWNKIIRKSTSLWKKLLISENFVSPKGFNSLNLKLSQKYPKLSQQDRLRLSFLENIFILKNWYNPKFVPQRTTLRGHMTSNITCLQFEDNYVITGADDKMIRVYDSINKKFLLQLSGHDGGVWALKYAHGGILVSGSTDRTVRVWDIKKGCCTHVFKGHNSTVRCLDIVEYKNIKYIVTGSRDNTLHVWKLPKESSVPDHGEEHDYPLVFHTPEENPYFVGVLRGHMASVRTVSGHGNIVVSGSYDNTLIVWDVAQMKCLYILSGHTDRIYSTIYDHERKRCISASMDTTIRIWDLENIWNNGECSYATNSASPCAKILGAMYTLQGHTALVGLLRLSDKFLVSAAADGSIRGWDANDYSRKFSYHHTNLSAITTFYVSDNILVSGSENQFNIYNLRSGKLVHANILKDADQIWSVNFKGKTLVAAVEKDGQSFLEILDFSKASKINYVSNPVNSSSSSLESISTSLGLTRTTIIP | bind | – | – | alive | dead | alive | indistinguishable from wild type | alive | – | – | – | – | – | – | fully competent | indistinguishable from wild type | viable | indistinguishable from wild type |
